Test results as given in patent US20100285016A1 (Genentech, published 2010).

T1: PRO34128-Fc fusion protein (human, UniProt Q6UXV0 19-351, limits assumed)
T1 construct: Used as conditioned medium; not shown: Fc portion
T1 sequence: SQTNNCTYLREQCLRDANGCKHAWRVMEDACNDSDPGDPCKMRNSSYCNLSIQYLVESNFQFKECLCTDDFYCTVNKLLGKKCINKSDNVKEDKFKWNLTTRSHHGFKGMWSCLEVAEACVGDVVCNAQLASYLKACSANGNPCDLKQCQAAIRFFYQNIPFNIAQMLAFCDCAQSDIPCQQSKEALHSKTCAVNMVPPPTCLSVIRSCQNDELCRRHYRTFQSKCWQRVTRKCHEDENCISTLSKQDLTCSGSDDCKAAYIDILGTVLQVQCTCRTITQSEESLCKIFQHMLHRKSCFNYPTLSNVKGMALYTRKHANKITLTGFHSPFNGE


Molecular target: T1, PRO34128-Fc fusion protein
Assay: co-immunoprecipitation with protein-A beads from mixed conditioned media, anti-FLAG western blot
Experimental: GFR1-Fc, GFR2-Fc, GFR3-Fc, GFR4-Fc and PRO34128-Fc fusion proteins were produced by transfecting appropriate expression constructs using Fugene6™ (Roche Biosciences). C-terminally FLAG-tagged GDNF, NRTN, ARTN, PSPN and LEFTY-B were also produced in 293T cells by transfecting the appropriate expression construct in 293T cells using Fugene6™. All expression constructs are under CMV promoter control. The conditioned media were collected 48 hours post transfection and appropriate Fc fusion proteins (as indicated in the FIG. 6A) were mixed with the ligands and the interacting complexes were immunoprecipitated using protein-A beads (Sigma). Immunoprecipiated proteins were resolved on a SDS-PAGE and detected by western blotting. The co-precipitating FLAG-tagged proteins were detected using an anti-FLAG antibody (Sigma) at a final concentration of 1 μg/ml, HRP-conjugated anti-mouse antibody (ICN Biosciences) and a chemiluminescent substrate (Amersham).

| binding result | Binder |
| --- | --- |
| no binding | C-terminally FLAG-tagged NRTN (ligand, UniProt Q99748 96-197, looked up, Produced in 293T cells and used as conditioned medium; also called neurturin; not shown: C-terminal FLAG tag) ARLGARPCGLRELEVRVSELGLGYASDETVLFRYCAGACEAAARVYDLGLRRLRQRRRLRRERVRAQPCCRPTAYEDEVSFLDAHSRYHTVHELSARECACV |
| no binding | C-terminally FLAG-tagged ARTN (ligand, UniProt Q5T4W7 108-220, looked up, Produced in 293T cells and used as conditioned medium; not shown: C-terminal FLAG tag) AGGPGSRARAAGARGCRLRSQLVPVRALGLGHRSDELVRFRFCSGSCRRARSPHDLSLASLLGAGALRPPPGSRPVSQPCCRPTRYEAVSFMDVNSTWRTVDRLSATACGCLG |
| no binding | C-terminally FLAG-tagged PSPN (ligand, UniProt O60542 61-156, looked up, Produced in 293T cells and used as conditioned medium; not shown: C-terminal FLAG tag) ALSGPCQLWSLTLSVAELGLGYASEEKVIFRYCAGSCPRGARTQHGLALARLQGQGRAHGGPCCRPTRYTDVAFLDDRHRWQRLPQLSAAACGCGG |
